Experiments:
SIRPA_V2_IgV = biological target: T1, SIRPA_V2_IgV (human); test: SPR Biacore T200, antibody captured on anti-human IgG (Fc), SIRPA_V2_IgV as analyte (0.25 to 16 nM), 1:1 model
T1 construct: Secreted recombinant protein; The crystal model held residues 33 to 143 of human SIRPA Variant 2
Protocol: The dissociation constants were measured by a capture method comprising capturing each antibody as a ligand to an Anti-Human IgG (Fc) antibody immobilized using Human Antibody Capture Kit (GE Healthcare Bioscience Corp.) and measuring an antigen as an analyte, using Biacore T200 (GE Healthcare Bioscience Corp.). HBS-EP+ (GE Healthcare Bioscience Corp.) was used as a running buffer, and CM5 (GE Healthcare Bioscience Corp.) was used as a sensor chip. Onto the chip, 2 μg/mL of various antibodies were added at 10 μL/min for 30 seconds, then a serially diluted solution (0.25 to 16 nM) of the human SIRPA protein as an antigen was added at a flow rate of 30 μL/min for 120 seconds, and subsequently the dissociation phase for 600 seconds was monitored. As a regenerant, 3 M magnesium chloride (GE Healthcare Bioscience Corp.) was added at a flow rate of 20 μL/min for 30 seconds. For data analysis, a binding rate constant (ka), a dissociation rate constant (kd), and a dissociation constant (KD; KD=kd/ka) were calculated using a 1:1 binding model.

human SIRPA_V1 protein = biological target: T2, human SIRPA_V1 protein (human, UniProt P78324 31-504); test: blocking cell-based ELISA: peroxidase-labeled CD47-Fc (1 µg/mL) on 293α cells expressing SIRPA_V1
T2 construct: Expressed on 293α cells from pcDNA3.2 V5-DEST or pFLAG V5-DEST (FLAG-tagged) vectors; also called human SIRPA Variant 1; hSIRPA V1
T2 sequence (P78324 31-504 limits assumed): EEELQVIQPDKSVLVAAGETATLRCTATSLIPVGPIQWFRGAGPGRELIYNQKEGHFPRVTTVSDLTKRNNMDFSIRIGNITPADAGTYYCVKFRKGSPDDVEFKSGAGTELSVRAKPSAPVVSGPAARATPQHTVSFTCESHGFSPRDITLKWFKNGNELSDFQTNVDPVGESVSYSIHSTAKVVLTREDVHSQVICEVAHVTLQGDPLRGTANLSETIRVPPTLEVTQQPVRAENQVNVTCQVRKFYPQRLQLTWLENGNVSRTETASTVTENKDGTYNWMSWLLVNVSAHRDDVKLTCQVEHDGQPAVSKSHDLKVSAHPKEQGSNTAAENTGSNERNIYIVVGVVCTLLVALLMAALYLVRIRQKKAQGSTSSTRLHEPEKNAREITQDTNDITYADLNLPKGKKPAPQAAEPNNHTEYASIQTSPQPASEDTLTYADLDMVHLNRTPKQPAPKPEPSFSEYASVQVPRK
Protocol: (§1) After the culture supernatant of the human SIRPA_V1 or V2 expression vector-introduced 293 cells prepared in Example 9)-1 was removed, 50 μL per well of various anti-SIRPA antibodies or various control Human IgG diluted with 5% FBS-containing PBS to a final concentration of 0 to 10,000 ng/ml was added to each of pcDNA3.2 V5-DEST-SIRPA_V1 or V2-introduced 293α cells, immediately followed by addition of 50 µL per well of peroxidase-labeled CD47-Fc prepared with 5% FBS-containing PBS at 1 μg/mL, and the mixture was allowed to stand at 4° C. for one hour. Thereafter, the SIRPA-CD47 binding inhibitory activity was evaluated in the same manner as in 1)-6-3.

human SIRPA_V2 protein = biological target: T3, human SIRPA_V2 protein (human, UniProt P78324 31-504); test: blocking cell-based ELISA: peroxidase-labeled CD47-Fc (1 µg/mL) on 293α cells expressing SIRPA_V2
T3 construct: Expressed on 293α cells from pcDNA3.2 V5-DEST or pFLAG V5-DEST (FLAG-tagged) vectors; also called human SIRPA Variant 2; ECD variant (full-length, amino acids 1 to 504)
T3 sequence (P78324 other isoform, or with tags, fused parts or gaps limits assumed): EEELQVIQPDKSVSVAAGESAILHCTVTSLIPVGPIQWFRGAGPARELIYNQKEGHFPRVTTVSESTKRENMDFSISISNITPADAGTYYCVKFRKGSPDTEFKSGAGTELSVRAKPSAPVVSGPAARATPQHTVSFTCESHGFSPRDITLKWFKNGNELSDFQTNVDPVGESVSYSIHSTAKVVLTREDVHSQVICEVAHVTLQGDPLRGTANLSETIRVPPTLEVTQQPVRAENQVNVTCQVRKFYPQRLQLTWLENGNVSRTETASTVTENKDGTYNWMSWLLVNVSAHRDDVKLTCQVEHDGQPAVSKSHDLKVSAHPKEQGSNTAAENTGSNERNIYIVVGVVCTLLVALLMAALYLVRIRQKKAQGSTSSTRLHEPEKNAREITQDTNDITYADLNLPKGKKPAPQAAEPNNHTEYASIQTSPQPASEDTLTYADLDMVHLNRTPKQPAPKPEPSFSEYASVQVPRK
Protocol: as §1

T1 sequence (chain, as listed by the source limits assumed): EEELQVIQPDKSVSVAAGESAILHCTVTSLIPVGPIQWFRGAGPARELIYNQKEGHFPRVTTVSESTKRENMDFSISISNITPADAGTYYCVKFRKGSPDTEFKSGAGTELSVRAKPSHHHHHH

B1: humanized anti-SIRPA antibody hD13_H1L3 (antibody, human IgG4 S228P, kappa, F234A L235A, V domains shown)
VH: QVQLVESGGGVVQPGRSLRLSCAASGFTFSDYGMIWVRQAPGKGLEWVASISSSSSYIYYADSVKGRFTISRDNSKNRLYLQMNSLRAEDTAVYYCARRYYGFNYPFDYWGQGTMVTVSS
VL: DTQLTQSPSSLSASVGQRVTITCGASKSVRTYMHWYQQKPGKQPKLLIYSASNLEAGVPSRFSGSGSGTDFTLTISSLQPEDFATYYCQQSNEPPYTFGQGTKLEIKR
notes: hH1 heavy chain (IgG4proFALA) and hL3 kappa light chain; also called hD13_HIL3; HIL3 antibody
In the case of B1, the Kd (SIRPA_V2_IgV) is reported as 1.17 nM, the IC50 (human SIRPA_V1 protein) is reported as 1.58 µg/mL and the IC50 (human SIRPA_V2 protein) is reported as 1.3 µg/mL.

Reference: patent US20260098102A1 (NATIONAL UNIVERSITY CORPORATION KOBE UNIVERSITY, published 2026)
